The source of these data is paper PMC4264349.

This assay deals with Biotinylated calmodulin (UniProt P62157). Nature of the assay: film bulk acoustic resonator (FBAR); biotinylated calmodulin immobilised on Neutravidin adsorbed on the gold sensor surface (190 ng/cm^2 shown; qualitatively the same at all surface concentrations); peptide injected in flow, 10 µL/min; 10 mM HEPES-NaOH, pH 7.2, 100 mM NaCl, 1 mM CaCl2; resonant frequency and motional resistance monitored; peptide concentration not given.

On to “Ca2+/calmodulin kinase II inhibitor (CaMKII 281-309) (from UniProt P11275 281-309) (peptide)”, for which the resonant frequency shift at saturation was -1.4 MHz.
